PMC11544104

What was measured:
[1] = system: BAF complex, FLAG-DPF2 WT (293T) (human); assay: pull-down; settings: histone H3K56ac (recombinant Xenopus laevis octamer)
[2] = biological target: H3K56ac-mononucleosome assembled with 35N35 DNA (Xenopus laevis); assay: pull-down

fold reduction of the preferential interaction against the WT complex [2] | Substance | binding signal (normalized bound DPF2 (reference)) [1]
– | 35N35 mononucleosome, H3K56ac | 1
5 fold | BAF complex containing DPF2 C330W (from UniProt Q92785;P51532) | –
5 fold | BAF complex containing DPF2 R350H (from UniProt Q92785;P51532) | –
5 fold | BAF complex containing DPF2 W369R (from UniProt Q92785;P51532) | –
